{
  "source": "patent US7943731",
  "about": "(MIT, dated 2011)",
  "proteins": {"B1": {"name": "Zif12 peptide (amino acids 2-59 of Zif268, Gly-Ser dipeptide at the N terminus) (other)", "chain": "not shown", "notes": "range 2-59; No N-terminal peptide extension; also called isolated Zif12 domain; Zif1-Zif2 construct"}},
  "target": "the molecule itself",
  "assay": "sedimentation equilibrium, self-association in solution without DNA",
  "description": "Sedimentation Equilibrium. Peptide samples at three concentrations, ranging from ≈10 µM to ≈100 µM, were centrifuged to equilibrium in a Beckman Optima XL-A at 20,000 and 30,000 rpm at 4° C. in a buffer containing 15 mM Tris, pH 7.8, 150 mM KCl, 5 mM MgCl_2, 20 µM ZnSO_4, and 0.2 mM DTT. Solvent density and partial specific volumes of peptides were calculate at described (13). The sedimentation data were analyzed by methods described in refs. 14 and 15, using the program NONLIN (16).",
  "data": [
    {"protein": "B1", "values": [
      {"measurement": "binding result", "value": "no binding (tested: ≈100 µM)"}
    ]}
  ]
}
